Where a chain is given by its changes, count along the chain named.
T1: human BCMA (B cell maturation antigen), expressed on cells (human, UniProt Q02223 1-184)
T1 construct: whole, on cells; Overexpressed on Flp-in CHO cells; also called Flp-inCHO-human BCMA cells; CD269
T1 sequence (looked up): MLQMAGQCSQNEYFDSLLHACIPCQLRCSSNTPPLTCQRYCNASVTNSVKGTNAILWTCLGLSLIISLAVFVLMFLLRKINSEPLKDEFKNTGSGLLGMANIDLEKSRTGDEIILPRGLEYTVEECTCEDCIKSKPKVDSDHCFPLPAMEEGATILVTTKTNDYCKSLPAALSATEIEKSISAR

B1: Tri-62 anti-BCMA-GPRC5D-CD3 trispecific antibody (other)
VH 1: EGQMVQSGAEVKKPGSSVKVSCKASGYMFTDHTFHWVRQAPGQGLEWMGYIYPRDQNTKYNEKFKGRVTITADKSTSTAYMELSSLRSEDTAVYYCARAGYYGSSHAMDYWGQGTTVTVSS
VL 1: DIQMTQSPSSLSASVGDRVTITCKASQDVSTAVAWYQQKPGKSPRLLIYSASSRYTGVPSRFSGSGSGTDFTFTISSLQPEDIATYYCQQLYSTPWTFGGGTKVEIK
VH 2: EVQLVQSGAEVKKPGSSVKVSCKASGYTFTSYGISWVRQAPGQGLEWMGEIYPRSGNTYYNEKFKGRVTLTADKSTSTAYMELSSLRSEDTAVYYCARGRAYGRNYPMDYWGQGTTVTVSS
VL 2: EIVLTQSPATLSLSPGERATLSCRASQSIGTSIHWYQQKPGQSPRLLIKYASESISGIPARFSGSGSGTDFTLTISSLEPEDFAVYYCQQSNSWPYTFGGGTKVEIK
VH 3: EVQLVESGGGVVQPGRSLRLSCAASGFTFTDYYMSWVRQAPGKGLEWVAMSRNKAKGHTIEYSSSVKGRFTISRDNSKNTLYLQMNSLRAEDTAVYYCARDTYESYDGYFDVWGQGTTVTVSS
VL 3: DIVMTQSPDSLAVSLGERATINCKSSQSLFNSRSRKNYLAWYQQKPGQTPKLLIYWASIRESGVPDRFSGSGSGTDFTLTISSLQAEDVAVYYCKQSYYLYTFGQGTKLEIK
chain 1: ESKYGPPCPPCPAPEAAGGPSVFLFPPKPKDTLMISRTPEVTCVVVDVSQEDPEVQFNWYVDGVEVHNAKTKPREEQFNSTYRVVSVLTVLHQDWLNGKEYKCKVSNKGLPSSIEKTISKAKGQPREPQVYTLPPSQEEMTKNQVSLWCLVKGFYPSDIAVEWESNGQPENNYKTTPPVLDSDGSFFLYSRLTVDKSRWQEGNVFSCSVMHEALHNHYTQKSLSLSLG
chain 2: B1 chain 1 with W148S, L150A, Y189V
notes: Trispecific antibody; Asymmetric (purification method B)
B2: Tri-49 anti-BCMA-GPRC5D-CD3 trispecific antibody (other)
VHH: EVQLVESGGGLVQPGGSLRLSCAASESISSIHIMAWYRQAPGKQRELVAGIRNDGSTVYVDSVKGRFTISRDNAKNSLYLQMNSLRAEDTAVYYCNADQGFGSYSEWERRSRWGQGTTVTVSS
VH 1: B1 VH 2
VL 1: B1 VL 2
VH 2: B1 VH 3
VL 2: B1 VL 3
chain 1: B1 chain 1
chain 2: B1 chain 1 with W148S, L150A, Y189V
notes: as for B1
B3: Tri-41 anti-BCMA-GPRC5D-CD3 trispecific antibody (other)
VHH: EVQLVESGGGLVQPGGSLRLSCSASGFTLDYYMIGWFRQAPGKEREGLSSISPADGSTYYADSVKGRFTISRDSSKNTVYLQMNSLRAEDTAVYYCAAGNEATISWGFGPWEYDYWGQGTMVTVSS
VH 1: B1 VH 2
VL 1: B1 VL 2
VH 2: B1 VH 3
VL 2: B1 VL 3
chain 1: EPKSSDKTHTCPPCPAPEAAGGPSVFLFPPKPKDTLMISRTPEVTCVVVDVSHEDPEVKFNWYVDGVEVHNAKTKPREEQYNSTYRVVSVLTVLHQDWLNGKEYKCKVSNKALPAPIEKTISKAKGQPREPQVYTLPPSREEMTKNQVSLWCLVKGFYPSDIAVEWESNGQPENNYKTTPPVLDSDGSFFLYSKLTVDKSRWQQGNVFSCSVMHEALHNHYTQKSLSLSPG
chain 2: B3 chain 1 with W151S, L153A, Y192V
notes: as for B1

What was measured:
[1] = biological target: T2, monkey CD3, on activated monkey PBMC (monkey); assay: FACS, activated monkey PBMC
T2 construct: whole, on cells
T2 sequence (Q95LI5 22-198): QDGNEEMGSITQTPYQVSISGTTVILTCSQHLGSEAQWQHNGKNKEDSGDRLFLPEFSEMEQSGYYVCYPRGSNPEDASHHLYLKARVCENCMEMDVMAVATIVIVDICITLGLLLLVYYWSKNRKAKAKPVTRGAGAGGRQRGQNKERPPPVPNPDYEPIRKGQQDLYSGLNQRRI

[2] = biological target: T1, human BCMA (B cell maturation antigen), …; assay: FACS, Flp-inCHO-human BCMA cells
Description: (§1) Flp-inCHO-human BCMA cells and CHOK1-human GPRC5D cells were scale-up cultured in T-75 cell culture flask to the logarithmic growth phase, respectively, and the cells were pipetted to obtain a single cell suspension. After the cells were counted and centrifuged, the cell precipitate was resuspended to 2×10⁶ cells per milliliter with a FACS buffer (PBS+2% fetal bovine serum). The suspension was added to a 96-well FACS reaction plate at 50 μl/well. 8 concentrations of the anti-BCMA-GPRC5D-CD3 antibodies or control antibodies were added at 50 μl/well, wherein gradient dilution was performed at a dilution ratio of 5 from a concentration of 100 nM. The cells were incubated at 4° C. for 1 h. The obtained mixture was centrifuged and washed 3 times with a PBS buffer. […] The obtained mixture was centrifuged and washed 3 times with a PBS buffer. 100 μl of the mixture was taken for detection and result analysis by FACS (FACS Canto™, purchased from BD Company). Data analysis was performed by software (FlowJo) to obtain the mean fluorescence intensity (MFI) of the cells. Then, a software (GraphPad Prism8) was used for analysis, data fitting and EC50 calculation.

[3] = biological target: T3, human CD3, endogenous on Jurkat cells and on activated human PBMC (human, UniProt P07766 23-207; P04234 22-171); assay: FACS, activated human PBMC
T3 construct: whole, on cells; CD3 complex as it stands on T cells
T3 sequence (P07766 23-207, chain 1 of 2): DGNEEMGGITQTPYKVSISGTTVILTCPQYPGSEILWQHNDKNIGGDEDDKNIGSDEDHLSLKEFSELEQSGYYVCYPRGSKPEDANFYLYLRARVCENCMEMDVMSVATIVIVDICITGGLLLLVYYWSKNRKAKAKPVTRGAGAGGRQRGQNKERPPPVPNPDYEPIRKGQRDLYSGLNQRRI
T3 sequence (P04234 22-171, chain 2 of 2): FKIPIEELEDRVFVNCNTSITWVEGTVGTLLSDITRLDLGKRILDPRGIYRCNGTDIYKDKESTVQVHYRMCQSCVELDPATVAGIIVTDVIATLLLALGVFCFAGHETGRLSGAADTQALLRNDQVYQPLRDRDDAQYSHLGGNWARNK

[4] = biological target: T3, human CD3, endogenous on Jurkat cells …; assay: FACS, Jurkat cells
[5] = biological target: T4, human GPRC5D, expressed on cells (human, UniProt Q9NZD1 1-345); assay: FACS, CHOK1-human GPRC5D cells
T4 construct: whole, on cells; Overexpressed on CHOK1 cells; also called CHOK1-human GPRC5D cells
T4 sequence (Q9NZD1 whole entry): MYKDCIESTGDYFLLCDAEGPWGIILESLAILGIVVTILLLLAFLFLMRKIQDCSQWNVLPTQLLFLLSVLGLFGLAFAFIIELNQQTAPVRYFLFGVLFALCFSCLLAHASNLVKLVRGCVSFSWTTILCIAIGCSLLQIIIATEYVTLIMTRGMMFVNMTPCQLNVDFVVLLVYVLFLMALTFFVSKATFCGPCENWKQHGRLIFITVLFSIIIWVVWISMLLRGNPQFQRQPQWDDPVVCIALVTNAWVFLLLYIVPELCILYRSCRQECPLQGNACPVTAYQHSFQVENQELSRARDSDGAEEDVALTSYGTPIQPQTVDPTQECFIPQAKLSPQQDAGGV
Description: as §1

Binder	EC50 [1] [µM]	Maximum mean fluorescence intensity [1]	EC50 [2] [µM]	Maximum mean fluorescence intensity [3]	Maximum mean fluorescence intensity [4]	EC50 [5] [µM]	EC50 [3] [µM]	EC50 [4] [µM]
B1	0.0855	740	0.0145	452	462	0.0004	–	–
B2	0.0594	–	–	–	–	–	0.0318	0.157
B3	–	–	0.00152	–	–	0.0043	–	–
